Measurements taken from patent US7294472B2, “Method for identifying modulators of G protein coupled receptor signaling” (Caden Biosciences, priority 2001, dated 2007).
pEC50: −log10 of the molar value. One block for each sequence: values may come before it. Where no end group is shown, it is not given here.

What was measured:
[1] = target: β2 adrenergic receptor (Homo sapiens, UniProt P07550); assay: ELISA binding of peptides panned from the Gs library to β2 adrenergic receptor; conditions: recombinant reconstituted β2 adrenergic receptor; peptides selected from Gs library
Description: The methods of Example 7 were repeated using recombinant reconstituted β2 adrenergic receptor panned with the Gs Library.

[2] = target: T1, rhodopsin (Bos taurus, UniProt P02699); assay: ELISA binding of lysates of peptides panned from the Gt library to rhodopsin; parameters: species or system bovine; conditions: OD450 for wells with receptor minus OD450 for wells with no receptor
T1 construct: Bovine rod outer segments (rhodopsin-containing membranes) were prepared from fresh retinas; from tissue; host or cells: bovine retina, rod outer segment membranes (EDTA- and urea-washed)
T1 sequence (P02699 whole entry): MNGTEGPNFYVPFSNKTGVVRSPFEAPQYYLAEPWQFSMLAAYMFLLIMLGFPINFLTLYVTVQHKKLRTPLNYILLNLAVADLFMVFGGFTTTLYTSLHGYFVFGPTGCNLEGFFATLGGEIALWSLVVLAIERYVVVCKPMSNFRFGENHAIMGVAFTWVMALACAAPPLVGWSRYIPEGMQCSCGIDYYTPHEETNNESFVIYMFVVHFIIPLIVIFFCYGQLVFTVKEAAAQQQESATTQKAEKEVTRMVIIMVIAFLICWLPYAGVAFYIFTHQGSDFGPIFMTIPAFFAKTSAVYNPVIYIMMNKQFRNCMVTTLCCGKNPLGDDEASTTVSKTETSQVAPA
Experimental: The panning process is illustrated in FIG. 1. For screening of the library by “panning,” rhodopsin receptors prepared according to Example 5 were immobilized directly on Immulon 4 (Dynatech) microtiter wells (0.1-1 μg of protein per well) in cold 35 mM HEPES, pH 7.5, containing 0.1 mM EDTA, 50 mM KCl and 1 mM dithiothreitol (HEK/DTT). After shaking for one hour at 4° C., unbound membrane fragments were washed away with HEK/DTT. The wells were blocked with 100 μl 2% BSA in HEKL (35 mM HEPES; 0.1 mM EDTA; 50 mM KCl; 0.2 M α-lactose; pH 7.5, with 1 mM DTT). For rounds 1 and 2, BSA was used for blocking; in later rounds 1% nonfat dry milk was used. For the first round of panning, about 24 wells of a 96-well plate were used. In subsequent rounds, 8 wells with receptor and 8 wells without receptor were prepared.
The Gt library was thawed (2 mL aliquot) and mixed with 6 mL lysis buffer on ice. Lysis buffer contains 4.25 mL HE (25 mM HEPES: 0.1 mM EDTA; pH 7.5); 1 mL 50% glycerol; 750 μL 10 mg/mL protease-free BSA in HE; 10 μL 0.5 M DTT; and 6.25 μL 0.2 M PMSF. Freshly prepared lysozyme solution (150 μL 10 mg/mL lysozyme in cold HE) was added and the tube was gently inverted several times and incubated on ice for no more than two minutes. The extent of lysis is evidenced by an increase in viscosity that can be observed by noting the slow migration of bubbles to the top of the tube after mixing. Lysis was terminated by mixing in 2 mL 20% lactose and 250 μL 2M KCl. The tube was centrifuged immediately at 13,000×g for 15 minutes at 4° C. and the supernatant transferred to a new tube. A small aliquot of 0.1% (the PRE sample) was saved in a separate, labeled tube. […] Immediately thereafter, the crude bacterial lysate from the peptide library (200 μL) was added to each well and allowed to shake gently for one hour at 4° C. For round 2, this same procedure was followed. In round 3, the amount of lysate used was reduced to 100 μL. In subsequent rounds, the lysate was diluted 1:10 in HEKL/BSA. In all rounds, 5-10 μL 200 μM native peptide was added to the wells to chase off peptides that were bound with lower affinity.
The methods of Example 7 repeated using rhodopsin screening with a Gt library. To identify the rank order of binding, the lysates were analyzed using ELISA methods in which the secondary antibody was conjugated to HRP. Following addition of the substrate, the microplate was read using a spectrophotometer. The binding is the OD450 for wells with receptor—OD450 for wells in which no receptor (control wells with empty lipid vesicles).

[3] = target: T2, PAR1 (Homo sapiens, UniProt P25116); assay: ELISA binding of purified MBP clones to SF9 membranes expressing PAR1 or muscarinic M1 receptor; parameters: expressed in transfected cells; host or cells: membranes of Sf9 insect cells infected with ThR/pBluebac recombinant virus; conditions: for specificity (in words): PAR1 versus Gq-coupled muscarinic M1 receptor; for binding affinity for PAR1 (in words): purified MBP clones, SF9 membranes
T2 sequence (P25116 22-425): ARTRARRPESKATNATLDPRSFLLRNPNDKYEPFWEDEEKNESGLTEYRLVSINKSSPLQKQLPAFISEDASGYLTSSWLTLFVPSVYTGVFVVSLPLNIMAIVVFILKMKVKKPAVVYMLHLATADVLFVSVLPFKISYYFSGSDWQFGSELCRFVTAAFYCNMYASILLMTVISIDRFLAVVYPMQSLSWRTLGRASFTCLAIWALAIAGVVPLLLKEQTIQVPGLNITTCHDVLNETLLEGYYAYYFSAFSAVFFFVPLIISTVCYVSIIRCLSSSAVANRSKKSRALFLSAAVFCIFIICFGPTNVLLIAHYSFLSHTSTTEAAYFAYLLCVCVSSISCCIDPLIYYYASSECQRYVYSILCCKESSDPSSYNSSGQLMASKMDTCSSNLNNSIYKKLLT
Experimental: To identify high affinity peptides that bind PAR1, membranes prepared from mammalian cells (Chinese hamster ovary) overexpressing PAR1 were panned with the G11 peptide library. ELISA binding affinity results of selected clones are shown in FIG. 9 for their binding to membranes prepared from SF9 cells expressing either PAR1 or the Gq-coupled muscarinic M1 receptor. To quantitate the binding, purified MBP clones were analyzed using ELISA methods in which the secondary antibody was conjugated to HRP. The binding for the control MBP-Gq fusion protein is shown. The data are the average of two separate experiments done in duplicate.

[4] = target: T1, rhodopsin; assay: "extra MII" assay: stabilization of metarhodopsin II; assay type: biochemical, bovine; conditions: for pEC50: MBP-high affinity peptide fusion proteins
Description: Rhodopsin can be measured spectrophotometrically in many of its conformational states. The high affinity, biologically active rhodopsin state can be easily differentiated from its precursor, MI, by the “extra” MII assay. See Example 35. This assay relies on the observation that under conditions of high pH and low temperature, MII is stabilized in the presence of Gt and can be spectrophotometrically measured. The ability of the C-terminal peptide to stabilize Meta II in the same manner as the heterotrimeric Gt, provides the tools to investigate the structural basis of the interaction of G proteins with the agonist binding sites of activated receptors.
For the “extra MII” assay, EDTA-washed rhodopsin (Example 5; 5 μM) is incubated in a 50 mM HEPES buffer, pH 8.2, with 100 mM NaCl, 1 mM MgCl2, and 1 mM DTT at 5.3° C., in the absence or presence of varying concentrations of Gt340-350 analogs or Gt. The sample is maintained at 5.4° C. using a water-jacketed and thermostated circulator cuvette holder in an SLM Aminco DW2000 spectrophotometer at 390 and 440 nm. A flash of light bleaching 10% of the rhodopsin is presented and after a 1 min incubation, a second spectrum is measured and the difference in spectrum calculated. “Extra” MII is calculated as the difference between the absorbance at 390 and 440. Dose response curves of MII stabilization by αt340350 (λ), mutant α340-350K341L(ν), and heterotrimeric Gt (v) were analyzed by non-linear regression using the program GraphPad PRISM and are shown in FIG. 23.
EDTA-washed rhodopsin (5 μM) was incubated in a 50 mM HEPES buffer, pH 8.2, with 100 mM NaCl, 1 mM MgCl2, and 1 mM DTT at 5.3° C., and “extra” MII was measured. For compounds that enhanced MBP-8 binding over 25% using the color coded readout, dose studies were performed to generate EC50 curves. Table XXII below provides the calculated EC50 for metarhodopsin II stabilization of each compound.

[5] = target: T3, light-activated rhodopsin (Bos taurus, UniProt P02699); assay: ELISA binding of MBP-peptide fusion proteins to light-activated rhodopsin; parameters: species or system bovine; conditions: for pEC50 / ELISA OD450: MBP-high affinity peptide fusion proteins; for pEC50: read-out: MII binding EC50; for ELISA OD450: absorbance at OD450 in a panning ELISA
T3 construct: Bovine rod outer segments (rhodopsin-containing membranes) were prepared from fresh retinas; from tissue; host or cells: bovine retina, rod outer segment membranes (EDTA- and urea-washed)
T3 sequence (P02699 whole entry, the tested form may be a part): as the sequence (P02699 whole entry) above
Description: The entire population of peptide-coding sequences identified in round 4 of panning (see Example 7) was transferred from pJS142 to pELM3 (New England Biolabs). This plasmid is a pMal-c2 derivative with a modified polylinker, inducible by isopropyl β-thiogalacto-pyranoside and containing the E. coli malE gene with a deleted leader sequence and leads to cytoplasmic expression of MBP fusion proteins. The MBP-carboxyl terminal peptide analog fusion proteins were expressed in E. coli.
For the assay, in the dark, 1 μg/well of ROS membranes (rhodopsin) as described in Example 5 was directly immobilized on microtiter wells in cold HEK/DTT for one hour at 4° C. The wells were rinsed, blocked with 1% BSA in HEK/DTT for one hour at 4° C. and rinsed again. Bound rhodopsin was activated by exposure to light for 5 minutes on ice before addition of the MBP fusion proteins (crude bacterial lysates were diluted 1:50 in HEK with 1 μM dithiothreitol; purified proteins were used at 0.2-120 nM). The MBP-Gαt340-350K341R (pELM17) fusion protein and MBP with linker sequence only (pELM6) were present in control wells at 50 nM final concentration. After 30 minutes, wells were washed and rabbit anti-MBP antibody (New England Biolabs) was added. The anti-MBP antibody was used at a 1:1000 dilution for crude lysates and a 1:3000 dilution for purified proteins. After 30 minutes, wells were rewashed and goat anti-rabbit antibody conjugated to horseradish peroxidase (1:7500 dilution for crude lysates; 1:10,000 dilution for purified proteins; Kierkagaard & Perry Laboratories) was added. After 30 minutes, the plate was washed four times with PBS containing 0.05% Tween™20. Horseradish peroxidase substrate (100 μl) was added and color was allowed to develop for about 20 minutes. The reaction was stopped by addition of 100 μl 2N sulfuric acid. Values indicate absorbance at OD450. The positive control for the assay was pELM 17, which encodes the MBP fusion protein Gαt340-350K341R. pELM6, which expresses MBP protein fused to a linker sequence only, served as the negative control. “No lysate” control wells were included to reflect any intrinsic, non-specific binding within the assay. […]

pEC50 [4]: < 4.00
pEC50 [5]: 5.22
ELISA OD450 [5]: .01
Sequence: IKENLKDCGLF [Gt, reference compound]

ELISA [2]: .187
Sequence: ISKNLRDCGLL [Clone L13]

ELISA [2]: .600
Sequence: ILQNLKDCGLF [Clone L17]

pEC50 [4]: 5.27
pEC50 [5]: 7.38
ELISA OD450 [5]: .36
Sequence: ICENLKDCGLF [MBP-10]

ELISA [2]: .257
Sequence: IVKNLEDCGLF [Clone L8]

stabilization of MII (in words) [4]: stabilized MII
binding affinity to light-activated rhodopsin (in words) [5]: high affinity
Sequence: LLENLRDCGMI [MBP-8]

pEC50 [4]: 5.91
pEC50 [5]: 8.42
ELISA OD450 [5]: .58
Sequence: MLENLKDCGLF [MBP-18]
binding affinity to light-activated rhodopsin (in words) [5]: even higher binding affinities than did MBP-8

pEC50 [4]: 5.98
pEC50 [5]: 8.00
ELISA OD450 [5]: .35
Sequence: LQQVLKDCGLL [MBP-9]

ELISA [2]: .621
Sequence: VRDILKDCGLF [Clone L15]

ELISA [2]: .833
Sequence: LRENLKDCGLL [Clone L14]

pEC50 [4]: 5.46
pEC50 [5]: 7.70
ELISA OD450 [5]: .66
Sequence: VLEDLKSCGLF [MBP-23]

ELISA [2]: .823
Sequence: LLDILKDCGLF [Clone L38]

ELISA [2]: .603
Sequence: ILESLNECGLF [Clone L34]

pEC50 [4]: 6.31
pEC50 [5]: 8.18
ELISA OD450 [5]: .61
Sequence: MLKNLKDCGMF [MBP-24]
binding affinity to light-activated rhodopsin (in words) [5]: even higher binding affinities than did MBP-8

pEC50 [4]: 6.03
pEC50 [5]: 8.11
ELISA OD450 [5]: .54
Sequence: LLENLRDCGMF [Peptide 8]

ELISA [2]: .423
Sequence: IRGSLKDCGLF [Clone L20]

Continued, sequence first:

Sequence: DRMHLWRFGLL [AG11]
ELISA [1]: .192

Sequence: QRMPLRQYELL [AG9]
ELISA [1]: .190

Sequence: MLDNLKACGLF [Clone L4]
ELISA [2]: .908

Sequence: LHLNLKEYNLV (also: fused to MBP) [PAR-33, MBP clone, linker LSTN]
specificity (in words) [3]: low specificity
binding affinity for PAR1 (in words) [3]: low affinity

Sequence: LQQKLKEYSLV (also: fused to MBP) [PAR-23, MBP clone, linker LSRS]
specificity (in words) [3]: low specificity
binding affinity for PAR1 (in words) [3]: low affinity

Sequence: QRMNLGPCGLL [AG18]
ELISA [1]: .155

Sequence: QRLRLRKYRLF [BAR31]
ELISA [1]: .026

Sequence: QRLRLGPDELF [AG4]
ELISA [1]: .291

Sequence: QWMDLRQHELL [BAR3]
ELISA [1]: .185

Sequence: QRMPLRLFEFL [AG3]
ELISA [1]: .217

Sequence: QGEHLRQLQLQ [AG2]
ELISA [1]: .330

Sequence: QRLHLRGYEFL [AG13]
ELISA [1]: .054

Sequence: HRRHIGEFALL [BAR11]
ELISA [1]: .048

Sequence: RWLHWQYRGRG [AG20]
ELISA [1]: .431

Sequence: ICENLKDCGLF [Clone L6]
ELISA [2]: .342

Sequence: QGMQLRRFKLR [AG1]
ELISA [1]: .435

Sequence: QRIHRRPFKFF [BAR1]
ELISA [1]: .218

Sequence: PRPRLLRFKIP [AG19]
ELISA [1]: .361

Sequence: ERLHRRLFQLH [BAR8]
ELISA [1]: .047

Sequence: LQLNRNEYYLV (also: fused to MBP) [PAR-13, MBP clone, linker VRPS]
binding affinity for PAR1 (in words) [3]: high affinity binding

Sequence: QRLNVGEYNLV (also: fused to MBP) [PAR-34, MBP clone, linker LPQM]
binding affinity for PAR1 (in words) [3]: high affinity binding

Sequence: QRVHLRQDELL [BAR2]
ELISA [1]: .197

Sequence: PCIQLGQYESF [BAR40]
ELISA [1]: .028

Sequence: NCMKFRSCGLF [BAR20]
ELISA [1]: .079

Sequence: MLDNLKDCGLF [Clone L7]
ELISA [2]: .525

Sequence: ILENLKDCGLF [Clone L3]
ELISA [2]: .839
